Reference: US20120202218A1 (MODPRO, published 2012)

Assays:
[1] = target: Human Carbonic Anhydrase II (human, UniProt P00918 2-260); experiment: Zn2+-induced gold nanoparticle aggregation assay, particles with 0% KE2C-C6 (JR2EC only)
[2] = target: the molecule itself; experiment: Zn2+-induced gold nanoparticle aggregation (UV-vis, TEM)

- binding result [1]: no binding (tested: 70 nM)
B1: JR2EC (peptide)
peptide: H-NAADLEKAIEALEKHLEAKGPCDAAQLEKQLEQAFEAFERAG-OH
modifications: also: Cys22 thiol bound to gold nanoparticle surface
notes: Synthetic Glu-rich 42-residue helix-loop-helix peptide; It dimerizes and folds into a four-helix bundle at pH<6, or at pH 7 with Zn2+; Immobilized on gold nanoparticles; also called aggregating polypeptide
- binding result [2]: binds
